Data: paper PMC2045677, “Thyroid hormone receptor orthologues from invertebrate species with emphasis on Schistosoma mansoni”

T1: SmTRα (Schistosoma mansoni, UniProt Q2TUU7 1-1115)
T1 sequence: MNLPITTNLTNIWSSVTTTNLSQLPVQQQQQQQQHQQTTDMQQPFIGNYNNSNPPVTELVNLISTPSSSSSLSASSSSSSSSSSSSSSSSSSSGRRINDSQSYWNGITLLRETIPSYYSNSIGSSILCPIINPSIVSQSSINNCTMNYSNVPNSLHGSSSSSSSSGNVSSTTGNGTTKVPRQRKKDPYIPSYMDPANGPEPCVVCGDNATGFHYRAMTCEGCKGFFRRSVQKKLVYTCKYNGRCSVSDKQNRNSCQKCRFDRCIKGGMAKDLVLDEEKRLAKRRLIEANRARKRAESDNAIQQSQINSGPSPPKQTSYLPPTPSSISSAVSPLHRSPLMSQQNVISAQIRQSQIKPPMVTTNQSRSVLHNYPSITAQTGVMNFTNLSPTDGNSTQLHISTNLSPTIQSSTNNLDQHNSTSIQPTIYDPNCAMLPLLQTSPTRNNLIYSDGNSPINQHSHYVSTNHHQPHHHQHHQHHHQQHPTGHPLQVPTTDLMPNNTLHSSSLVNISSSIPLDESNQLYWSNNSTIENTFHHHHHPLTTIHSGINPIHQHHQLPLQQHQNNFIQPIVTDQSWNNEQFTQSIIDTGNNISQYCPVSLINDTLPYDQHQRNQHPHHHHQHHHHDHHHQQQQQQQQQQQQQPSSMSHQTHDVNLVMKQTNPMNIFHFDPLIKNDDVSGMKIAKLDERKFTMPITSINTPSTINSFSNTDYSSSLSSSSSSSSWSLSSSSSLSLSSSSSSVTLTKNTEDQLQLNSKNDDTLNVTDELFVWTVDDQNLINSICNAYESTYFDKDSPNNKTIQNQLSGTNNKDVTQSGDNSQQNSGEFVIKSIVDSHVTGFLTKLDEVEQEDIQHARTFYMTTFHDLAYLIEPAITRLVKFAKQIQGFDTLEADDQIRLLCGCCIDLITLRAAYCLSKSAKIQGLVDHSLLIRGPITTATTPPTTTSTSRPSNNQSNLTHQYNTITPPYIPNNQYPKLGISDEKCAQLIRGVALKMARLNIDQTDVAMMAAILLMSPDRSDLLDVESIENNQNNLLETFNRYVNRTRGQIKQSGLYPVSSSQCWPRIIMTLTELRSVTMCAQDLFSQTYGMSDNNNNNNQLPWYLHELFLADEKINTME


Key:
[1] = molecular target: T1, SmTRα; experiment: EMSA; monomer or homodimer; EMSA on ice 40 min, 15 µl with 3 µl 5x buffer (5x: 20% glycerol, 5 mM MgCl2, 2.5 mM EDTA, 2.5 mM DTT, 250 mM NaCl, 50 mM Tris-HCl pH 7.5, 0.25 mg/ml poly(dI-dC)); 6% native gel, 1x TBE, 4°C; conditions: protein: ivt; tags: none stated (pCITE-4a); label: 32P; blunt
[2] = molecular target: SmTRα(Gln182-Ala288) (Schistosoma mansoni, UniProt Q2TUU7 182-288); experiment: EMSA; monomer or homodimer; cold self competes; EMSA on ice 40 min, 15 µl with 3 µl 5x buffer (5x: 20% glycerol, 5 mM MgCl2, 2.5 mM EDTA, 2.5 mM DTT, 250 mM NaCl, 50 mM Tris-HCl pH 7.5, 0.25 mg/ml poly(dI-dC)); 6% native gel, 1x TBE, 4°C; conditions: protein: ivt; tags: none stated (pCITE-4a); label: 32P; blunt

Row | Binder | binding result [1] | binding result [2]
1 | half-site (dsDNA) DNA 1: GTACCGTAAGGTCACTCGCGT DNA 2: ACGCGAGTGACCTTACGGTAC | binds | binds
2 | DR1 (dsDNA) DNA 1: CCGTAAGGTCACAGGTCACTCG DNA 2: CGAGTGACCTGTGACCTTACGG | binds | binds
3 | DR2 (dsDNA) DNA 1: CCGTAAGGTCACAAGGTCACTCG DNA 2: CGAGTGACCTTGTGACCTTACGG | binds | binds
4 | DR0 (dsDNA) DNA 1: CCGTAAGGTCAAGGTCACTCG DNA 2: CGAGTGACCTTGACCTTACGG | binds | binds
5 | DR3 (dsDNA) DNA 1: CCGTAAGGTCACAGAGGTCACTCG DNA 2: CGAGTGACCTCTGTGACCTTACGG | binds | binds
6 | DR4 (dsDNA) DNA 1: CCGTAAGGTCACAGGAGGTCACTCG DNA 2: CGAGTGACCTCCTGTGACCTTACGG | binds | binds
7 | Pal0 (dsDNA) DNA 1: CGCAAGGTCATGACCTCG DNA 2: CGAGGTCATGACCTTGCG | binds | binds
8 | DR5 (dsDNA) DNA 1: CCGTAAGGTCACCAGGAGGTCACTCG DNA 2: CGAGTGACCTCCTGGTGACCTTACGG | binds | binds
